Test results from PMC11924951 (The Journal of Experimental Medicine, 2025).

T1: His-tagged IFNAR1 (human, UniProt P17181 28-436)
T1 construct: interferon alpha/beta receptor 1 (IFNAR1), human; Soluble recombinant receptor subunit loaded on Ni-NTA biosensors; source: bought: ACROBiosystems (IF1-H5225)
T1 sequence (looked up): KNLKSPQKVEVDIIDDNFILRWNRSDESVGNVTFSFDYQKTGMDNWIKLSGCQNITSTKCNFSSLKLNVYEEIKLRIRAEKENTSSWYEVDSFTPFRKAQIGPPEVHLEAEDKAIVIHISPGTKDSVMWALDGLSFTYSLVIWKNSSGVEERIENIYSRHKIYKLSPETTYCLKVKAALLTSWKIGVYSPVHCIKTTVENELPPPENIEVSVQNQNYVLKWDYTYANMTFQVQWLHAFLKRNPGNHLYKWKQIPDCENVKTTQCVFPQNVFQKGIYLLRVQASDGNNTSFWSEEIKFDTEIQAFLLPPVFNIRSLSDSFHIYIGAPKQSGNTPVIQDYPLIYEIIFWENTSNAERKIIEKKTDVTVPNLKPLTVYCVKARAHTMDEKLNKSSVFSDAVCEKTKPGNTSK

T2: His-tagged IFNAR2 (human, UniProt P48551 27-243)
T2 construct: interferon alpha/beta receptor 2 (IFNAR2), human; Soluble recombinant receptor subunit loaded on Ni-NTA biosensors; source: bought: ACROBiosystems (IF2-H5224)
T2 sequence (looked up): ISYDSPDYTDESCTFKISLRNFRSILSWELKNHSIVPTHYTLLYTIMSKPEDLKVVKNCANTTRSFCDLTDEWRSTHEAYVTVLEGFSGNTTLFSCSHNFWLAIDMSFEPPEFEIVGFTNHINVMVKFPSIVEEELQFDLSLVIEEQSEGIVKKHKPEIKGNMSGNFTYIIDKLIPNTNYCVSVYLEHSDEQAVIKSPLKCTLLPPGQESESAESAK


Assays:
Settings in all cases: both partners purified
Fc-tagged IFNα1 = target: T3, Fc-tagged IFNα1 (human, UniProt P0DY56); test: BLI; blocking format: IFN-I preincubated 1 h at room temperature with rontalizumab (1:50), sifalimumab (1:50) or plasma (1:10) in assay buffer with 50% goat serum; His-tagged IFNAR1 or IFNAR2 loaded on Ni-NTA biosensors, blocked in 100% goat serum; association 120 s
T3 construct: interferon alpha-1 (IFNα1), human; source: bought: ACROBiosystems (IFA-H5258)

His-tagged IFNAR1 = target: T1, His-tagged IFNAR1; test: BLI; His-tagged IFNAR1 (25 nM) or IFNAR2 (100 nM) loaded on Ni-NTA biosensors for 600 s; IFN-I in solution, association 60-120 s, dissociation 120 s; 0.02% Tween-20, 0.1% BSA in 1x PBS, pH 7.4; Octet R2
His-tagged IFNAR2 = target: T2, His-tagged IFNAR2; test: as above

binding result (Fc-tagged IFNα1)	binding result (His-tagged IFNAR1)	binding result (His-tagged IFNAR2)	Binder
binds			rontalizumab (antibody, V domains shown, source: bought: Thermo Fisher Scientific (MA5-41908)) VH: EVQLVESGGGLVQPGGSLRLSCATSGYTFTEYIIHWVRQAPGKGLEWVASINPDYDITNYNQRFKGRFTISLDKSKRTAYLQMNSLRAEDTAVYYCASWISDFFDYWGQGTLVTVSS VL: DIQMTQSPSSLSASVGDRVTITCRASQSVSTSSYSYMHWYQQKPGKAPKVLISYASNLESGVPSRFSGSGSGTDFTLTISSLQPEDFATYYCQHSWGIPRTFGQGTKVEIK
binds			sifalimumab (antibody, V domains shown, source: bought: Thermo Fisher Scientific (MA5-41904)) VH: QVQLVQSGAEVKKPGASVKVSCKASGYTFTSYSISWVRQAPGQGLEWMGWISVYNGNTNYAQKFQGRVTMTTDTSTSTAYLELRSLRSDDTAVYYCARDPIAAGYWGQGTLVTVSS VL: not shown
	binds	binds	Fc-tagged IFNα1 (Fc fusion, human, UniProt P0DY56 24-189, looked up, interferon alpha-1 (IFNα1), human; source: bought: ACROBiosystems (IFA-H5258)) CDLPETHSLDNRRTLMLLAQMSRISPSSCLMDRHDFGFPQEEFDGNQFQKAPAISVLHELIQQIFNLFTTKDSSAAWDEDLLDKFCTELYQQLNDLEACVMQEERVGETPLMNADSILAVKKYFRRITLYLTEKKYSPCAWEVVRAEIMRSLSLSTNLQERLRRKE
